The record followed here is patent publication US20100184652A1.

The assay addresses pY213 peptide (14-residue Abi1 peptide containing phosphorylated tyrosine 213) (human). The assay can be described thus: SPR (Biacore 3000), biotinylated pY213 on streptavidin chip, GST-Abl SH2 injected, 1:1 model.

As usually defined, the Kd is the free concentration of one partner at which half of the binding sites on the other are occupied at equilibrium, for simple one-to-one binding. Low values mean a tighter complex, high ones a looser complex. For “GST-Abl SH2 domain fusion protein (from UniProt P00519 146-236)”, the Kd stood at 33.2 nM.
